Reference: patent publication US20260209325A1 (SCHOLAR ROCK, published 2026)
Residue numbers refer to the chain shown, from its start.

B1: Ab128 (antibody, human IgG4 S228P, kappa, V domains shown)
VH: EVQLVESGGGLVQPGGSLRLSCTASGFTLSSYSMDWVRQAPGKGLEWVSYITGSGDTTYYADSVKGRFTISRDNAKNTLYLQMNSLRAEDTAVYYCARGFGWISGWAEDYFDYWGQGTLVTVSS
VL: DIQMTQSPSSLSASVGDRVTITCQASQSVYSYLNWYQQKPGKAPKLLIYGASRLEGGVPSRFSGSGSGTDFTFTISSLQPEDIATYYCQQHSTDQRTFGGGTKVEIKR
B2: Ab114 (antibody, human IgG4 S228P, kappa, V domains shown)
VH: QVQLVQSGAEVKKPGASVKVSCKVSGGTFRSYTIHWVRQAPGKGLEWMGGMNPSSGHTIYAQKFQGRVTMTEDTSTDTAYMELSSLKSEDTAVYYCARGLDYGEGYYYYGMDVWGQGTTVTVSS
VL: DIQMTQSPSSVSASVGDRVTITCRASQGISESLAWYQQKPGKAPKLLIYSASSLESGVPSRFSGSGSGTDFTLTISSLQPEDFANYYCQQGYSSPPYTFGGGTKVEIKR
B3: Ab112 (antibody, human IgG4 S228P, kappa, V domains shown)
VH: QVQLVQSGAEVKKPGASVKVSCKVSGGTFGIYAIHWVRQAPGKGLEWMGGTIPVFGTAIYAQKFQGRVTMTEDTSTDTAYMELSSLKSEDTAVYYCASLTGIAAAGTHPARGGMDVWGQGTTVTVSS
VL: DIQMTQSPSSVSASVGDRVTITCRASPSISSYLAWYQQKPGKAPKLLIYAASRLQSGVPSRFSGSGSGTDFTLTISSLQPEDFANYYCQEYLSFPLTFGGGTKVEIKR
B4: Ab129 (antibody, human IgG4 S228P, kappa, V domains shown)
VH: QVQLVQSGAEVKKPGASVKVSCKVSGFNYPRSAIHWVRQAPGKGLEWMGGINPSGEATIYAQKFQGRVTMTEDTSTDTAYMELSSLKSEDTAVYYCARDSSPQWLVTAGVYFYGMDVWGQGTTVTVSS
VL: B3 VL with P27Q, S31N, Y32W, A50H, R53T, E90Q, L92S, F94T, L96W
B5: Ab123 (antibody, human IgG4 S228P, kappa, V domains shown)
VH: EVQLVESGGGLVQPGGSLRLSCAASGFTFSKYDMSWVRQAPGKGLELVASISSSGGTRYYPDSVKGRFTISRDNAKNSLYLQMNSLRAEDTAVYYCAKDLWVASPGYGMDVWGQGTTVTVSS
VL: DIVMTQSPLSLPVTPGEPASISCRSSQSLLHSSGHNYLHWYLQKPGQSPQLLIYLGSIRAPGVPDRFSGSGSGTDFTLKISRVEAEDVGVYYCMQALLNPPTFGGGTKVEIKR
B6: Ab115 (antibody, human IgG4 S228P, kappa, V domains shown)
VH: QVQLVQSGAEVKKPGASVKVSCKVSGYAFTNYNIHWVRQAPGKGLEWMGGINPRTGGTIYAQKFQGRVTMTEDTSTDTAYMELSSLKSEDTAVYYCAKDIYTGVAVAGSGMDYWGQGTLVTVSS
VL: DIQMTQSPSSVSASVGDRVTITCRASQGISTHLAWYQQKPGKAPKLLIYGASNLESGVPSRFSGSGSGTDFTLTISSLQPEDFANYYCQQANSFPWTFGGGTKVEIKR
B7: Ab101 (antibody, human IgG4 S228P, kappa, V domains shown)
VH: EVQLVESGGGLVQPGGSLRLSCAASGSAFSSYGMSWVRQAPGKGLELVASINSNGGSTYYPDSVKGRFTISRDNAKNSLYLQMNSLRAEDTAVYYCARDLLVRFLEWSHYYGMDVWGQGTTVTVSS
VL: B5 VL with Y37F, L55E, G56V, I58N, A60V, P61S, A96Q, L97T, L98Q, N99Y
B8: Ab107 (antibody, human IgG4 S228P, kappa, V domains shown)
VH: B7 VH with L100Q
VL: DIVMTQSPLSLPVTPGEPASISCRSSQSLLHSSGHNFLHWYLQKPGQSPQLLIYAGSNRPSGVPDRFSGSGSGTDFTLKISRVEAEDVGVYYCAHATQLPHTFGGGTKVEIKR
B9: Ab103 (antibody, human IgG4 S228P, kappa, V domains shown)
VH: B7 VH with S27Y, A28T, N52T, S53G, N54D, G55A, S57R, L100T
VL: B8 VL with A55E, G56V, P60V, A94M, H95Q, A96Q, L99Y, H101P
B10: Ab108 (antibody, human IgG4 S228P, kappa, V domains shown)
VH: B7 VH with R103G, E106Q
VL: B8 VL with A55E, G56V, P60V, A94M, H95Q, A96Q, L99Y, H101P
B11: Ab124 (antibody, human IgG4 S228P, kappa, V domains shown)
VH: QVQLQESGPGLVKPSQTLSLTCTVSGGSISSSPYSWSWIRQPPGKGLEWIGYVDLAGSTDYNPSLKSRVTMSVDTSKNQFSLKVNSVTAADTAVYYCARALSSRSSEWLLDQYTMDVWGQGTTVTVSS
VL: EIVMTQSPATLSLSPGERATLSCRASQSIGINLAWYQQKPGQAPRLLIYGVSNRATGIPARFSGSGSGTDFTLTISSLEPEDFAVYYCQQYGTARLTFGGGTKVEIKR
B12: Ab141 (antibody, human IgG4 S228P, kappa, V domains shown)
VH: EVQLVESGGGLVQPGGSLRLSCAASGFTFSSYGMSWVRQAPGKGLELVASFTGSGGAYYPDSVKGRFTISRDNAKNSLYLQMNSLRAEDTAVYYCARDLLIRFLEWSHYYGMDVWGQGTTVTVSS
VL: B8 VL with A55E, G56V, P60V, A94M, H95Q, A96Q, L99Y, H101G
B13: Ab134 (antibody, human IgG4 S228P, kappa, V domains shown)
VH: B7 VH with R103E, E106K
VL: B8 VL with A55E, G56V, P60V, A94M, H95Q, A96Q, L99Y, H101P

Target: T1, human pro-myostatin (human, UniProt O14793 24-375, biotinylated (in the SPR assay))
Assay: cell-based or functional assay

IC50 (nM) Pro + Furin [nM] | Binder
0.774 | B1
2.8 | B2
1.08 | B3
4.31 | B4
0.184 | B5
6.01 | B6
0.251 | B7
0.195 | B8
0.413 | B9
0.27 | B10

Target: T2, recombinant human latent myostatin (human, UniProt O14793 24-375, biotinylated (in the Octet pH assay only))
Assay: cell-based or functional assay

IC50 (nM) Latent + mTLL2 [nM] | Binder
1.03 | B1
3.3 | B2
9.22 | B3
3.89 | B4
0.139 | B5
1.43 | B11
2.94 | B6
0.139 | B12
0.128 | B7
0.135 | B8
0.631 | B13
0.506 | B9
0.237 | B10

Target: T2, recombinant human latent myostatin
Assay: cell-based or functional assay
Remark: another data set of the same source

mTLL2 IC50 [pM] | Binder
9220 | B3
139 | B5
139 | B12

Target: T1, human pro-myostatin
Assay: SPR Biacore 8K, biotin-antigen captured

Kd [pM] | koff [s⁻¹] | kon [M⁻¹ s⁻¹] | Binder
365 | 0.000463 | 1.27e+06 | B1
1740 | 0.00735 | 4.23e+06 | B2
561 | 0.000122 | 217000 | B3
2200 | 0.000307 | 140000 | B4
394 | 0.000543 | 1.38e+06 | B5
3040 | 0.00123 | 406000 | B6
40 | 0.000112 | 2.79e+06 | B12
78 | 0.000339 | 4.37e+06 | B7
60 | 0.000319 | 5.34e+06 | B8
261 | 0.00151 | 5.78e+06 | B9
177 | 0.00105 | 5.92e+06 | B10

Target: T3, murine pro-myostatin (mouse, UniProt O08689 25-376, biotinylated (in the SPR assay))
T3 construct: also called proGDF8 (mouse); mouse pro-myostatin
Assay: SPR Biacore 8K, biotin-antigen captured

Kd [pM] | koff [s⁻¹] | kon [M⁻¹ s⁻¹] | Binder
716 | 0.000655 | 914000 | B1
6290 | 0.0208 | 3.31e+06 | B2
748 | 0.000188 | 251000 | B3
4240 | 0.000496 | 117000 | B4
618 | 0.000772 | 1.25e+06 | B5
3260 | 0.000454 | 139000 | B11
3050 | 0.00137 | 450000 | B6
53.1 | 0.000156 | 2.93e+06 | B12
83 | 0.00036 | 4.34e+06 | B7
57 | 0.000455 | 8.04e+06 | B8
379 | 0.00221 | 5.83e+06 | B9
218 | 0.00183 | 8.42e+06 | B10

Target: T4, cyno pro-myostatin (cynomolgus monkey, Biotinylated for capture in the SPR assay (site not stated). The native form is a disulfide-linked homodimer, partly furin-cleaved; one chain is given.)
T4 construct: also called proGDF8 (cynomolgus); cynomolgus monkey pro-myostatin
Assay: SPR Biacore 8K, biotin-antigen captured

Kd [pM] | koff [s⁻¹] | kon [M⁻¹ s⁻¹] | Binder
814 | 0.000736 | 905000 | B1
2600 | 0.00908 | 3.49e+06 | B2
601 | 0.000124 | 207000 | B3
1300 | 0.000534 | 411000 | B4
339 | 0.000539 | 1.59e+06 | B5
3130 | 0.00139 | 443000 | B6
36.9 | 0.000103 | 2.8e+06 | B12
65 | 0.000317 | 4.84e+06 | B7
54 | 0.000316 | 5.85e+06 | B8
252 | 0.00154 | 6.09e+06 | B9
159 | 0.00102 | 6.39e+06 | B10

Target: T1, human pro-myostatin
Assay: Ab KD, summary Table 11; method and antigen not stated there

Kd [pM] | Binder
3560 | B3
683 | B5
40 | B12

Target: human GDF-11 (human, UniProt O95390 299-407, limits assumed)
Assay: plate binding assay, OD 450 nm, one antibody concentration that is not given, on Hu-GDF-11 (method not described in the text)

human GDF-11, sequence (O95390 299-407 limits assumed): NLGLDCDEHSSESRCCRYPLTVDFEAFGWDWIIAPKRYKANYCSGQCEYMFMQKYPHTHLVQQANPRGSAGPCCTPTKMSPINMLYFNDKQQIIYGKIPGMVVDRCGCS

binding result | Binder
no binding | B1
no binding | B2
no binding | B3
no binding | B5
no binding | B6

Target: mouse GDF-11 (mouse, UniProt Q9Z1W4 297-405, limits assumed)
Assay: plate binding assay, OD 450 nm, one antibody concentration that is not given, on Mu-GDF-11 (method not described in the text)

mouse GDF-11, sequence (Q9Z1W4 297-405 limits assumed): as the sequence (O95390 299-407 limits assumed) above

binding result | Binder
no binding | B1
no binding | B2
no binding | B3
no binding | B5
no binding | B6
